# According to publication PMC8786796:
# How the values were obtained:
# [1] = target: TLR5 (endogenous, on Jurkat JE6-1 NF-κB::eGFP reporter cells) (human (endogenous in Jurkat JE6-1)) (UniProt O60602)
# [2] = target: TLR5 (endogenous, on Jurkat JE6-1 NF-κB::eGFP reporter cells) (human (endogenous in Jurkat JE6-1)) (UniProt O60602); remark: listed apart in the source
# Chain of UniProt O60602 (O60602 21-858): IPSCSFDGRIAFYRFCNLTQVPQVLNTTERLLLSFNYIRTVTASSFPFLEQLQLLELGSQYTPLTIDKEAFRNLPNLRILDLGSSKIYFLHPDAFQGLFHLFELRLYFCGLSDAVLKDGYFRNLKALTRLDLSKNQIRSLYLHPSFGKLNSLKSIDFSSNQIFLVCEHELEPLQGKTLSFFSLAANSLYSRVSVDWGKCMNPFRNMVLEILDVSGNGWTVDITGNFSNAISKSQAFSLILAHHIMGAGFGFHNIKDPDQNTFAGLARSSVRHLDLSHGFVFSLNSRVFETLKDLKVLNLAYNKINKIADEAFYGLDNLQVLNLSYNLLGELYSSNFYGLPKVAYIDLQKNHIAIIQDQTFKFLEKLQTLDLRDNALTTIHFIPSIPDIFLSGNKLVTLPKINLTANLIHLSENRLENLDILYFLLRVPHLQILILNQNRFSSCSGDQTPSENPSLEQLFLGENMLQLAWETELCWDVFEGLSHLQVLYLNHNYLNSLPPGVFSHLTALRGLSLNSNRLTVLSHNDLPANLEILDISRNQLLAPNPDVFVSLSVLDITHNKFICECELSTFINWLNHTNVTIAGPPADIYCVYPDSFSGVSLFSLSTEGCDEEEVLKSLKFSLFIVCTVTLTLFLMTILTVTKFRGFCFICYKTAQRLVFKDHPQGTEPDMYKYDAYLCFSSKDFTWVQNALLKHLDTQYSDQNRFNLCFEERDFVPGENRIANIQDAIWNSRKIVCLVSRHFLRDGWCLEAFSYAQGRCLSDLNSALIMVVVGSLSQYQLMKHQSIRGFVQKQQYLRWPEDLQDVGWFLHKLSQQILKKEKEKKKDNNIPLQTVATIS
substance,measurement,setting,value
flagellin purified from S. typhimurium (Fla-ST standard and Fla-ST ultrapure) (from UniProt P06179 1-495) (ligand),"NF-κB::eGFP expression in Jurkat JE6-1 reporter cells (endogenous TLR5), flagellin titrated, 24 h, flow cytometry; lowest concentration giving detectable eGFP",[1],< 100 pg/mL
same,"limit of detection (concentration giving a 1.5-fold increase of eGFP) in JE6-1 TLR5 NF-κB::eGFP reporter cells, flagellin titrated",[2],10 pg/mL
